How the values were obtained:
[1] = molecular target: T1, mouse CD20 (mouse, UniProt P19437 1-291, limits assumed); experiment: not described
T1 construct: Named only as mouse CD20
T1 sequence (looked up): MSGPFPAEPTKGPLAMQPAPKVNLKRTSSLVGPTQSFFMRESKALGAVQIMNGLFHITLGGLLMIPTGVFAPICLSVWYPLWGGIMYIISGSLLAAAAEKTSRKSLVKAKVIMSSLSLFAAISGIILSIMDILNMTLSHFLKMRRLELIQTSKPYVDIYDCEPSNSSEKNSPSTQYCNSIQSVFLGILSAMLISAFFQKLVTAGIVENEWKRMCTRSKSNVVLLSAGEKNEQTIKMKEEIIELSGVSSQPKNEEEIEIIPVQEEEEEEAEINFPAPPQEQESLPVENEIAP

[2] = molecular target: T2, human CD20 (human, UniProt P11836 1-297); experiment: cell-based or functional assay
T2 sequence (looked up): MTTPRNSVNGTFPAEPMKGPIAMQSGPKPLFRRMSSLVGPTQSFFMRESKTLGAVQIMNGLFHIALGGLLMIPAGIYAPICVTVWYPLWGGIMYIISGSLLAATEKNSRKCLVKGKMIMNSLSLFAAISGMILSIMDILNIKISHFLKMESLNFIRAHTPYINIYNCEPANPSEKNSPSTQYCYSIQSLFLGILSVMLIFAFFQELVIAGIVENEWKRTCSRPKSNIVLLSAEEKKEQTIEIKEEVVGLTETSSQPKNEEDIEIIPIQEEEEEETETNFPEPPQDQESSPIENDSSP

binding result [1]: no binding
EC50 of RTCC against Ramos cells with purified T cells from six healthy donors [2]: 5.3 to 14.3 ng/mL
B1: XmAb®13676 (XENP13676 Anti-CD20 × Anti-CD3 Fab-scFv-Fc) (bispecific antibody)
heavy: QVQLVQSGAEVKKPGASVKVSCKASGYTFTSYNMHWVRQAPGQGLEWMGAIYPGNGDTSYNQKFQGRVTITADKSISTAYMELSSLRSEDTAVYYCARSTYYGGDWYFNVWGAGTLVTVSSASTKGPSVFPLAPSSKSTSGGTAALGCLVKDYFPEPVTVSWNSGALTSGVHTFPAVLQSSGLYSLSSVVTVPSSSLGTQTYICNVNHKPSDTKVDKKVEPKSCDKTHTCPPCPAPPVAGPSVFLFPPKPKDTLMISRTPEVTCVVVDVKHEDPEVKFNWYVDGVEVHNAKTKPREEEYNSTYRVVSVLTVLHQDWLNGKEYKCKVSNKALPAPIEKTISKAKGQPREPQVYTLPPSREEMTKNQVSLTCDVSGFYPSDIAVEWESDGQPENNYKTTPPVLDSDGSFFLYSKLTVDKSRWEQGDVFSCSVMHEALHNHYTQKSLSLSPGK
chain: not shown
light: QIVLTQSPSSLSASVGDRVTITCRASSSVSYIHWFQQKPGKSPKPLIYATSNLASGVPVRFSGSGSGTDYTLTISSLQPEDFATYYCQQWTSNPPTFGGGTKVEIKRTVAAPSVFIFPPSDEQLKSGTASVVCLLNNFYPREAKVQWKVDNALQSGNSQESVTEQDSKDSTYSLSSTLTLSKADYEKHKVYACEVTHQGLSSPVTKSFNRGEC
notes: The anti-CD20 Fv is derived from murine antibody C2B8; also called plamotamab
EC50 of Jeko-1 target cell killing (RTCC) in the presence of 3 µg/ml rituximab [2]: 51 ng/mL
EC50 of Jeko-1 target cell killing (RTCC) in the presence of 10 µg/ml rituximab [2]: 93 ng/mL
EC50 of Jeko-1 target cell killing (RTCC) in the presence of 30 µg/ml rituximab [2]: 162 ng/mL
EC50 of Jeko-1 target cell killing (RTCC) in the presence of 100 µg/ml rituximab [2]: 387 ng/mL
EC50 of Jeko-1 target cell killing (RTCC), no rituximab [2]: 24 ng/mL

— patent publication US20230048390A1 (Xencor, published 2023)
